Measured values as given in patent US20160266136A1 (Stanford University, published 2016).

Columns and labels:
mouse Gas6 [1] = target: T1, mouse Gas6 (mouse, UniProt Q61592 46-674, limits assumed); test: KinExA
T1 construct: Used both for the KinExA value against mouse Gas6 and for the endogenous Gas6 in the serum of the nude mice; also called Gas6 (in serum of mice)
T1 sequence (looked up): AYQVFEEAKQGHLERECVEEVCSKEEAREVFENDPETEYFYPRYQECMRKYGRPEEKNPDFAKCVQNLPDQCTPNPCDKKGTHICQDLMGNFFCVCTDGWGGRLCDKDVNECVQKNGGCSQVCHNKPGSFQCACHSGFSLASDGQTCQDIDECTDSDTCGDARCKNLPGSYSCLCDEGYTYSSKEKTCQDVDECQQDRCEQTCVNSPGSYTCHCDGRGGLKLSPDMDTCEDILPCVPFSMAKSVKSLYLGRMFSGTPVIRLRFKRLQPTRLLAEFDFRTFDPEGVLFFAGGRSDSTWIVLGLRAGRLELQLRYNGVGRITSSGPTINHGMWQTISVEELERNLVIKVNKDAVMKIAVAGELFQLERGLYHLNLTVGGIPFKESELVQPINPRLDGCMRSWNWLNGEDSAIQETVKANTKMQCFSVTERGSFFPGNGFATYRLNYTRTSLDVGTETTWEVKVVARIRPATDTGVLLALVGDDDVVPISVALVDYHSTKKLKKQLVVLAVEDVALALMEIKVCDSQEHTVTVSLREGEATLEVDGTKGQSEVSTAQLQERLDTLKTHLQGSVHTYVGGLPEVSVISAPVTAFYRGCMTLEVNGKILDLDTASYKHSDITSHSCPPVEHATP
Protocol: (§1) A KinExA 3200 instrument (Sapidyne Instruments Inc.) was used to measure equilibrium binding and association rate constants for the Gas6-Axl interactions. […] Adsorption coating of 200 mg of beads was performed using 45 μg of protein at room temp for 1 h. The protein solution was then removed and beads were blocked using PBS with 1% BSA for 2 h at room temp. Beads were stored in blocking buffer at 4° C. and used within two weeks. All binding reactions were carried out in phosphate buffered saline with 1 mg/ml BSA and 0.02% sodium azide.
(§2) For equilibrium binding studies, three independent titrations were completed for each Axl Ig1 or Axl Fc fusion unless otherwise noted. […] Each sample was analyzed twice and data from the three independent equilibrium binding experiments were globally analyzed using n-curve analysis in the KinExA Pro 3.6.2 software (Sapidyne Instruments Inc.) to obtain the Kd value.

mouse Gas6 [2] = target: T1, mouse Gas6; test: KinExA; column Kd(pM) mGas6
Protocol: as §1, §2

Protein S (OriGene) = target: T2, Protein S (OriGene) (UniProt P07225 42-676); test: KinExA signal test on MYD1 Fc coated beads, Protein S probed with an anti-c-Myc antibody
T2 construct: Carries a c-Myc tag by the detection used
T2 sequence (looked up): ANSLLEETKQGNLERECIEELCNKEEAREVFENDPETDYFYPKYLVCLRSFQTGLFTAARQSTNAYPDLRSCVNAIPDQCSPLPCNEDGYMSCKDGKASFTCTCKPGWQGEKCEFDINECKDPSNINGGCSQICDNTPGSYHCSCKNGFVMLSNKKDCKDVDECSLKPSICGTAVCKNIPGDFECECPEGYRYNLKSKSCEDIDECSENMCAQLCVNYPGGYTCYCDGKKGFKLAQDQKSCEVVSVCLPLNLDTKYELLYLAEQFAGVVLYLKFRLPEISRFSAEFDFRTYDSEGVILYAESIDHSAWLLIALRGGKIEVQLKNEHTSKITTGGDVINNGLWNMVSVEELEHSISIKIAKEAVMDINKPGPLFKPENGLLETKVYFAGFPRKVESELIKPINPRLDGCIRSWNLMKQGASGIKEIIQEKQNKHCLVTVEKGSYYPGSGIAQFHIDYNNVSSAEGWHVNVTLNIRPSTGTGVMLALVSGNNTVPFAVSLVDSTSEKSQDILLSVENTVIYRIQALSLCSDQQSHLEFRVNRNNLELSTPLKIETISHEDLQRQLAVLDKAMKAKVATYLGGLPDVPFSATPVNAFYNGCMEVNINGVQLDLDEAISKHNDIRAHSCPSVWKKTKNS
Protocol: as §1
To test binding of Protein S (OriGene) to MYD1, 700 μl of a 10 nM solution was flowed over the capture beads.

B1: MYD1 Fc (Fc fusion)
chain: APRGTQAEESPFVSNPGNITGARGLTGTLRCQLQVQGEPPEVHWLRDGQILELADSTQTQVPLGEDEQGDWIVASQLRITSLQLSDTGQYQCLVFLGHQTFVSQPGYVRLEGLPYFLEEPEDRTVAANTPFNLSCQAQGPPEPVDLLWLQDAVPLATAPGHGPQRSLHVPGLNKTSSFSCEAHNAKGVTTSRTATITVLPQQPRNLHLVSRQPTELEVAWTPGLSGIYPLTHCTLQAVLSNDGMGIQAGEPDPPEEPLTSQASVPPHQLRLGSLHPHTPYHIRVACTSSQGPSSWTHWLPVETPEGVPLGPPENISATRNGSQAFVHWQEPRAPLQGTLLGYRLAYQGQDTPEVLMDIGLRQEVTLELQGDGSVSNLTVCVAAYTAAGDGPWSLPVPLEAWRPGQAQPVHQLVKEPSTPAFS
notes: Disulfide-linked dimer from HEK cells; also the capture reagent on the KinExA beads; also called MYD1 Fc fusion; not shown: Fc domain of a human IgG1
Mouse Gas6 [1]
  Kd: ~1 pM
Mouse Gas6 [2]
  Kd: 1.1 pM
Protein S (OriGene)
  binding result: no binding (tested: 10 nM)
